Results on 2 molecules are retold here after US7524498.

Several values for one entry are separate records, joined by “and”; a condition that tells them apart may be missing. Equal entries are not always repeated. Where two headings read alike, the source gives them in different places.

What is called IC50 is the concentration that gives 50% inhibition. The low end stands for greater potency, the high end for weaker potency.

For assay [1], the target named is BAT-1 antigen (human).
Assay [2] addresses BAT-1 antigen (human). The experiment in a line: flow cytometry on PBL of a prostate cancer patient, B cells.
Assay [3] concerns the target BAT-1 antigen (human). The experiment in a line: flow cytometry on human PBL of a selected normal donor, hBAT+ CD8+ cells. (In general: Flow cytometry measures light scatter and fluorescence of single cells or particles in a stream.)
The target in assay [4] is BAT-1 antigen (human). Nature of the assay: flow cytometry on non-adherent PBL of a normal donor, within CD20+ B cells.
For assay [5], the target named is BAT-1 antigen (human). The experiment in a line: flow cytometry on human PBL of a selected normal donor, hBAT+ CD4+ cells.
Assay [6] addresses BAT-1 antigen (human). The experiment in a line: flow cytometry on non-adherent PBL of a normal donor.
Assay [7] concerns the target BAT-1 antigen (human). Nature of the assay: flow cytometry on human PBL of normal donors, 4° C. 1 hr, gated lymphocytes.
The target of assay [8] is BAT-1 antigen (human). The experiment in a line: flow cytometry on PBL of a prostate cancer patient, CD4+ cells.
Assay [9] deals with BAT-1 antigen (human). The experiment in a line: flow cytometry on non-activated human CD4+ T cells.
Assay [10] deals with BAT-1 antigen (human). Nature of the assay: flow cytometry on PBL of a prostate cancer patient, CD8+ cells.
For assay [11], the target named is BAT-1 antigen (human). The experiment in a line: flow cytometry on non-adherent PBL of a normal donor, within CD19+ B cells.
Assay [12] has as its target BAT-1 antigen (human). This is another data set of the same source.
For assay [13], the target named is BAT-1 antigen (human). Nature of the assay: flow cytometry on human PBL of a selected normal donor, within CD4+ cells.
Assay [14] concerns the target BAT-1 antigen (human). Nature of the assay: flow cytometry on human PBL of a selected normal donor, within CD8+ cells.
Assay [15] deals with BAT-1 antigen (human). The source holds these as a separate data set.
Assay [16] addresses BAT-1 antigen (human). Nature of the assay: flow cytometry on human PBL of a selected normal donor.

In turn, “humanized BATRHC/BATRκD γ1 mAb (antibody)” registered an IC50 in assay [1] of 10 µg/mL. For the same molecule, the % of B cells bound in [2] was 68%. This molecule showed a % of PBL positive (CD8+ cells) in assay [3] of 15%. This molecule also returned a % of CD20+ cells positive in [4] of 70%. In addition, the % of PBL positive (CD4+ cells) in assay [5] was determined as 25%. The % of lymphocytes positive in [6] is 25% and 29%. This molecule returned a % of cells binding in [7] of 20%. Moreover, in assay [8], the % of CD4+ cells bound stood at 39%. In [9], the % of CD4+ cells binding was 17% and 20%. Moreover, the % of CD8+ cells bound in [10] amounted to 60%. The same molecule came in with a % of CD19+ cells positive in [11] of 75%.

B1: humanized BATRHC/BATRκD γ1 mAb (antibody, V domains shown)
VH: QVQLVQSGSELKKPGASVKISCKASGYTFTNYGMNWVRQAPGQGLQWMGWINTDSGESTYAEEFKGRFVFSLDTSVNTAYLQITSLTAEDTGMYFCVRVGYDALDYWGQGTLVTVSS
VL: EIVLTQSPSSLSASVGDRVTITCSARSSVSYMHWFQQKPGKAPKLWIYRTSNLASGVPSRFSGSGSGTSYCLTINSLQPEDFATYYCQQRSSFPLTFGGGTKLEIK
As for B1, the Signal Strength in assay [12] was 0. Besides, the % of CD4+ cells binding in assay [13] is 58%; in assay [15], 52% and 77%. The % of CD8+ cells binding in assay [14] came out at 71%. The % of cells positive in assay [16] amounted to 50%.
